Reference: the nanobody polyreactivity screen of Harvey et al. (2022)

Test: yeast display, Sf9 membrane polyspecificity reagent, FACS + sequencing; frameworks hold sequencing errors
How it was run: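 Polyreactivity labels are assigned by the sorting gate from which each nanobody was recovered. The gates were low and high (top ~1%), set on anti-HA fluorescence for expression and streptavidin fluorescence for reagent binding. Before sorting, galactose-induced (36–48 hours) yeast display cells were stained for 1 hour at 4 °C with 10% biotinylated, detergent-solubilized Sf9 membrane reagent.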

Row | Sequence | polyreactivity (PSR sort gate)
1 | QVQLVESGGGLVQAGGSLRLSCAASGIIFGWYAMGWYRQAPGKERELVADISSDDSTYYADSVKGRFTISRDNAKNTVYLQMNSLKPEDTAVYYCAADTSYGSYWSLYYYNYYWGQGTQVTVSS | high polyreactivity
2 | QVQLVESVGGLVQAGGSLRLSCAASGFTFSWSTKGWYRQAHAKERELVATISWSGSRTYYADSVKGRFTISRDNAKNTVYLEINSLKPEDTAVYYCNVAPHRQVFYTGQYDYWGQGTQVTVSS | high polyreactivity
3 | QVQLVESGGGLVQAGGSLRLSGAASGRIFGSYARGWYRQAPGKEREFVAGIRSVGSTNYADSVKGRFTISRDNAKNTVYLQMNSLKPEDTAVSYCASRLWHVSYAGQGGDYWGKGTQVTVSS | low polyreactivity
4 | QVQLVESGGGLVQAGGSLRLSCAASGSTFEQNAMGWYRPAPGKEREFVAAITGSGGSTYYADSVKGRFTISRDNAKNTVYLQMNSMKPEDTAVYYCAADIQDGWYWWDIYDYWGQGTQVTVSS | low polyreactivity
5 | QVQLVESGGGLVQAGGSLRLSCAASGSTFRYNAMGWYRQAPGKERELVAAINRGGGTDYADSVKGRFTISRDNAKNTVYLQMNSLKPEDTAVYYCNATTGYGGYNYWGQGTQVTVSS | low polyreactivity
6 | QVQLVESGGGLVQAGGSLRLSCAASGSIISSYAMGWYRQAPGKEREFVAAISSSGDSTYADSVKGRFTISRDNAKNTVYVQMNSLKPEDTAVFYCAVGGAGSDDYWGQGSQVTVSS | low polyreactivity
7 | KVQLVESGGGLVQAGGTLRLSCAASGSTFTPYAMVWYRQAPGKERELVAAIWIGGNTYYADSVKGRFTISRDNAKNTVYLQMNSLKPEDTAVYYCATENVDPDHYYDWGYDYWGQGTQVTVSS | low polyreactivity
8 | QVQLVESGGGLVQAGGSLRLSCAASRITFYPNDMGWDRQAPGKERELVAAITTNDGDTYYADSVKGRFTISRDNAKNTVYLQMISLQPEDTAVYYCAADSGSTSEYEYLGQGTQVTVSS | low polyreactivity
9 | QVQLVESGGGLVQAGGSLRLSFAASARTFYIYPMGWYRQAPGKERELVAAITYGGGRTFYADSVKGRFTISRDNANNTVYLQMNSLKPEDTAVYYCAATVRGKRSTYDYWGQGTQVTVSS | high polyreactivity
10 | QVQLVESGGGLVQAGGRLRLSCAASGSTFDYYTMGGYRQAPGKERELVAGITSGGSTNYADSVKGRFTISRDNAKNTVYLQMNSLKPADTAVYYCAARVSKYYKPYGYWGQGTQVTVSS | high polyreactivity
11 | QVQLVESGGGLVQPGGSLRLSCAASGGIFLGNAMGGYRQAPGKERELVAGITWSGGRTYYADSVKGRFTISRDNAKNTVYLQMTSLKPEDTAVYDCNKDTPGTRFYGIYSYDYWGQGTQVTVSS | low polyreactivity
12 | QVQLVESGVGLVQAGGSLRLSCASSGSIFTPYAMGCYRQAPGKESELVAAISRSGGSTYYADSVKGRFTISRDNAKNTVFLQMNRLKPEDTAVYYCAVVVYDIYGYESDYWGEGTQVTVSS | low polyreactivity
13 | QVQLVESGGGLVQAGGSLRLSCAASGFTFVWYAMGWYRQAPGKERELVAAISRRGTRTYYADSVKGRFTISRDNAKNTVYLQMNSLKPEDTAVYYCAASPWGGYGYWGQGTQVTLSS | high polyreactivity
14 | QVQLVESGGGLVQARGSRRLSCAASGLTFVPTAMGWYRQAPGKEREFVAAISNNGGRKYYADSVKGRFTISRDNAKNRVYLQINSLKPDDTAVYYCAKYLSPGERHSYDYWGQGTQVTVSS | high polyreactivity
15 | QVHLVESGGGLVQAGGSLRLSCAASGYIFKVNAMGWYRQATRKERELVAAISSDGGSTYADSVKGRFTISRDNAKNTVYLEFYSLKTEDTAVYYCNVDLESERDPPKYVYWGQGTQVTVSS | low polyreactivity
16 | QVQLVESGGGLVQAGGSLRLSCAASGSIFKSYAMGWYRQAPGKERELVAAISGSGGRTYYADSVKGRFTISRDNAKNTAYLQMNSLKPEDTAVYYCNALASIRTHTGYAYSPPYDYWGQGTQVTVSS | high polyreactivity
17 | QVQLVESGGGLVQAGGSLRLSCAASGRIFYTNGMGWYRQAPGKERELVAAISYNGGRTYYADSVKGRFTISRDNAKNTVYLQMNSLKPEDTAVYYCNKRGDYQFHFDYWGQGTQVTVSA | low polyreactivity
18 | QVQLVESGVGLVQAGGSLRLTCAASGRIFVTNAKGWYRQAPGKERELVAAITRGVNTNYADSVKGRFTISRDNAKNTVYLQMNSLKPEDTAVYYCAADSSYYYVYGYFPGYYYWGQGTQVTVSS | low polyreactivity
19 | QVQLVESGGGLVQAGGSLRLSCAASGRIFYRYDMGWYRQAPGKERELVAAISSGGNTNYADSVKGRFTISRDNAKNTVYLQMNCLKPEDTAVYYCAKRYRSYQGSSRQGNYGYWGQGTQVSVSS | high polyreactivity
20 | QVQLVESGGGLVQAGGSLRLSCAASGSIFLVNAKGWYRQAPGKERELVAAITWIGGSTYYADSVKGRFTISRDNAKNTVYLQMNSLKPEDTAVYYCAAYGKRLGGGGYYWGQGTQVTVSS | high polyreactivity
21 | QVQHVESGGGLVQAGGSLRLSCAASGFIFYKYAMGWYRQAPGKERELVAAISKRGGSTYYADSVKGRFTISRDNAKNTVYLQMNSLKPEDTAVYYCATDGGNSATVRYVASDYWGQGTQVTVSS | high polyreactivity
22 | QVQLVESGGGLVQAGGSLRLSCAASGRIFRSNGMGWCRQAPGKERELVAVITPRSGTTSYADSVKGRFTISRDNAKNTVYLQRNSLKPEDTAVYYCAADSDWYPSPYDYWGQGTQVTVSS | high polyreactivity

Row | Sequence | polyreactivity (PSR sort gate)
23 | QVQLVESGGGLVQAGGSLRLRCAASGSIFTWYAMGWYRQAPAKERELVAAITRGGSTSADSVKGRFTISRDNAKNTVYLQMNSLKPEYTAVYYCNAVYGVYDFNYWGQGTQVTVSS | low polyreactivity
24 | QVQLVESGGGLVQAGGSLRLSCAASGSTFFRYDMGWYRQAPGKERELVADINYNGGSTYYADSVKGRFTISRDNAKNTVYLQMNSLKPEDTAVYYCAAAYRVRGRTYDSWGQGTQVTVSS | high polyreactivity
25 | QVQLVESGGGLVQAGRSLRLICAASGFTSHVYAMGWYRQAPGKERELVAAISSGSSTYYADSVKGRFTISRDNAKNTVYLQRNSLKPEDTAVYYCATTHKTLRRYESWGQGTQVTVSS | low polyreactivity
26 | QVQLVESGGGIVQAGGSLRLSCAASGIIFRAYAMGWSRQAPGKERELVAAISWSGGSTYYADSVKGRFTISRDNAKYTVYLQMNSLNPEDTAVYYCAAESLVYDFDYWGQGTQVTVSS | high polyreactivity
27 | QVQHVESGGGLVQAGGSLRLSCAASGLTFELYAMGWYRQAPGKERELVAAITWSGGRTYDADSVKGRFTISRDNAKNTVYLQMNSLKPEDTAVYYCAADVYPGYVGSQEYDYWGQGTQVTVSS | low polyreactivity
28 | QVQLVESGGGLVQAGGSLRLSCAASGRIFYVYAMGWYRAPGKERELVASISYIGGSTYYADSVKGRFTISRDNAKNTVYLQMNSLIPEDTAVYYCATDYYGYTVSFLVASWPDDYWGQGTQVTVSS | low polyreactivity
29 | QVQLVESGGGLVQAGGSLRLSCAASGRIFQGYAMGWYRQAPGKERELVARITFRGARTYYADSVKGRFTISRDNAKITVYLHMNCLKPEDTAVYYFAKDAETYYWGSYKSLYDYWGQGTQVTVSS | low polyreactivity
30 | QVQLVESGGGLDQAGGSLRLICAASGIIFASNAMGWYRQAPGKERELVATITGSVAGTYYADSVKGRFTISRDNAKPTVYLQMNSLKPEDTAVYDCAAKRGWNVAGYDYWGQRTQVTVSS | low polyreactivity
31 | QVQLVESGGGLVQAGGRLRLSSAASRIIFRDNDMGWYRQAPGKERELVASISDSGGSTYYADSVKGRFTISRDNAKNTVYLQKNSLKSEATAVYYCAAPYLSLYLYDYWGQGTQVTVSS | low polyreactivity
32 | QVQLVESGGGLVQAGGRLRLSCAASGFIFRAYAMGWYRQAPGKERELVAAISRGGGTYYADSVKGRFTISRDNAKNTVYLQMNSLKPEDTAVYYCAVDLLRRGFTTVVTTYDYWGQGTQVTVSS | high polyreactivity
33 | QVQLVESGGGLVQAGGSLRLSCAASGFIFDKNAMGWYRQAPGKERELVAAISSGGGSTDYADAVKGRFTISRDNAKNPDYLHMNSLKPEDTAVYYCARYWDQLQQYVISFGRYGMDYWGQGTQVTVSS | high polyreactivity
34 | QVQLVESGGGLVQAGGSLRLSCAASGYIWYYAMGWSRQAPGKERELVAAISWGGGSTYYADSVKGRFTISRDNAKNTVYLQMNSLKPEDTAVYYCATRCIPDDNARDYWGQGTQVTVSS | low polyreactivity
35 | QVQLVESGGGLVQAGGSLRLTCAASGSIFYPYSMGRYRPAPGKERELVAAISSSGGSTYYADSVKGRFTISRDNAKNTVYLQMNSLKPEDTADYNCAARGKKHAYDYWGQGTQVTVSS | low polyreactivity
36 | QVQLVESGGGLVQAGGSLRLSCAASGSTFLYNRMGWYRQAPGKERELVAAISSVGSTYYADSVKGRFTISRDNAKNTVYLQMNSLKPEDSAVYYCAASYDWRAYRRDFYYWLTGDYWGQGTQVTVSS | low polyreactivity
37 | QVQLVESGGGLVQAGGSLRLSCADSGSIFRRNAMGWYRQAPGKERELVAGIRGSGGSTYYADSVKGRFTISRDNAKNTVYLQMNSLKPEDTAVYYCAARRSYYHGSYDYWGQGTQVTVSS | high polyreactivity
38 | QVQLVESGGGLVQAGGRLRLSCAASGSIFASYALGWYRQAPGKERELVAVITRSGGSTYYADSVKGRFTISRDNAKNTVYLQMNSLKPEDTAVYYCAAQYGRTYYSRREYWGQGTQVTVSS | high polyreactivity
39 | QVQLVESGRGLVQAGGSLRLSCAASGFTFDGNAMGWYRQAPGIERELFARITWDDGSTYYADSVKGRFTISRDNAKNTVYLQMNSLNPEDTAVYYCAAEWCTDGYQVLPVDYDYWGQGTQVTVSS | low polyreactivity
40 | QDQLVDSGGGLVQAGGSLRLSCAASGRTFESYAMGWYRQAPGKERELVAAISYSGGSTYYADSVKGRFTISRDNAKNTVYLQMNSLKPEDTAVYYCAVRWRYKYDYWGQGTQVTVSS | high polyreactivity
41 | QVQLVESGGGVVQAGGSLGLSCAASGRIFDVNAMGWYRQAPGKERELVAAITYSDGSTYYADSVKGRFTISRDIAKNTVYLQMNSLKPEDTAVYYCAATQEPVTPQPYGYWGQGTQVTVSS | low polyreactivity
42 | QVQLVESGGGLVQAGGSLRLSCAASGRIFIGNAMGWYRQAPGKERELVAAITWSGDDSTYYADSVKGRFTISRDNAKITVYLQMNSLKTEDTAVYYCAAYSYYYEYNYWGQGTQVTVSS | low polyreactivity
43 | QVQLVESGGGLVQAGGSLRLSCAASGFIFYKNAMGWYRQAPGKERELVAAISSRGGSTSYADSVKGLFTISRDNAKNTVYLQMNSLKQEDTAVYYCAAYPDYSYFYWGQGTQVTVSS | high polyreactivity
